Results published in the nanobody polyreactivity screen of Harvey et al. (2022).

Assay: yeast display, Sf9 membrane polyspecificity reagent, FACS + sequencing; frameworks hold sequencing errors
How it was run: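 A synthetic nanobody library was expressed on Saccharomyces cerevisiae BJ5465 by galactose induction for 36–48 hours. The library was stained for 1 hour at 4 °C with 10% biotinylated, detergent-solubilized Sf9 membrane reagent and enriched with streptavidin microbeads before FACS. Low and high (top ~1%) gates were set on anti-HA fluorescence for expression and streptavidin fluorescence for reagent binding, and each polyreactivity label reflects the gate of origin.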

Sequence	polyreactivity (PSR sort gate)
QVQLVESGGGLVQAGGSLRLSCAASGSIFVDNAMGWYRQAPGKERELVAVITLRSGSTNYADSVKGRFTISRDNAKNTVYLQMNSLKPEDTAVYYCAADDTYHDYQRDTDDDYWGQGTQVTVSS	low polyreactivity
QVQLVESGGGLVQAGGSLRLSCAASGSIFVDYTMGWYLQAPGKERELVARITSGGSTYYADSVKGLFTISRDNAKNTVYLQMIRLNPEDTAVYYCAARPYYRYRNSWREQYYYWGQGTQVSVSS	high polyreactivity
QVQLVESGGGLVQAGGSLRLSCAASGSIFVEYAMGWYRQAPGKERELVAGISSGGITSYADSVKGRFTISRDNAKNTVYLQMNSLKPEDTAVYYCATDPYKWFFSSYYLLQEVEYWGQGTQVTVSS	low polyreactivity
QVQLVESGGGLVQAGGSLRLSCAASGSIFVFYARGWSRQAPGKERELVAAITSGGRTYYADSVKGRFTISRDNAKNTVYLQMNSLKPEDTAVYYCNAVRFYSIGLGQDDYWGQGTQVTVSS	low polyreactivity
QVQLVESGGGLVQAGGSLRLSCAASGSIFVGNAMGWYRQAPGKEREFVASISWDGTTYYADSVKGRFTISRDNAKNTVYLQMNSLKPEDTAVYYCAADVSTYGAQATEGTDLEYDYWGQGTLVTVSS	low polyreactivity
QVQLVESGGGLVQAGGSLRLSCAASGSIFVGNAMGWYRQAPGKERELVAAISWSGGSTYYADSVKGRFTISRDNAKNTVYLQMNSLKPEDTAVYYCATQLSIRMDYWGQGTQVTVSS	high polyreactivity
QVQLVESGGGLVQAGGSLRLSCAASGSIFVGNAMGWYRQAPVKERELVADINVTGGTTYYADSVKGRFTISRDNAKNTVYLQMNSLKPEDTAVYYCAARQSIFYSWTGVEYYYWGQGTQVTVSS	low polyreactivity
QVQLVESGGGLVQAGGSLRLSCAASGSIFVGNTMGWYRQAPGKERELVAAITWSGGRTYYADSVKGRFTISRDNAKNNVYLQMHSLKPEDTAVYYLKALAYYIRYYYWGKGTQVTVSS	high polyreactivity
QVQLVESGGGLVQAGGSLRLSCAASGSIFVGYAMGWYRQAPGKERELVAAISKRGGGTYYADSVKGRFTISRDNAKNTVYLQMNSLKPEDTAVYYCNAVTVHLDVASGYYYWGQGTQVTVSS	high polyreactivity
QVQLVESGGGLVQAGGSLRLSCAASGSIFVGYAMGWYRQAPGKERELVAAISQRGGITYYADSVKGRFTISRDNAKNTVYLQMNSLKPEDTAVYYCAAPRYLSYVRRYDYWGQGTQVTVSS	high polyreactivity
QVQLVESGGGLVQAGGSLRLSCAASGSIFVGYAMGWYRQAPGKERELVAAISRSGGTTYYADSVKGRFTISRDTAKNTVYLQMNSLKPEDTAVYYCAAERWAYYRSGLWWPYDYWGQGTQVTVSS	high polyreactivity
QVQLVESGGGLVQAGGSLRLSCAASGSIFVGYAMGWYRQAPGKERELVAAITSGGNTNYADSVKGRFTISRDNAKNTVYLQMNSLKPEDTAVYYCNKDQGDGLRSQLGTDATYDYWGQGTQVTVSS	low polyreactivity
QVQLVESGGGLVQAGGSLRLSCAASGSIFVGYAMGWYRQAPGKVRELVAAISRRGGSTYYADSVKGRFTISRDNAKNTLYLQMNSLKPEDTAVYYCAARQSTSATSGYYSWGQGTQVTVSS	high polyreactivity
QVQLVESGGGLVQAGGSLRLSCAASGSIFVGYAMGWYRQARGKERELVAAITGSGTRTYYADSVKGRFTISRDNAKNTVYLQMNSLKPEDTAVYYCAAVTYHGNPSEYYPDTVGFYYWGQGTQVTVSS	low polyreactivity
QVQLVESGGGLVQAGGSLRLSCAASGSIFVGYGAMGWYRQAPGKERELVAAITSGNSTYYADSVKGRFTISRDNAKNTVYLQMNSLKPEDTAVYYCAARGFLKYVTEFDYWGQGTQVTVSS	low polyreactivity
QVQLVESGGGLVQAGGSLRLSCAASGSIFVHYAMGWYRQAPGKERELVAAITSSGGRTYYADSVKGRFTISRDNAKNTVYLQMNSLKPEDTAVYYCNAAKYLYRHGFLSAGDMYYWGQGTQVTVSS	high polyreactivity
QVQLVESGGGLVQAGGSLRLSCAASGSIFVHYDMGWYRPAPGKERELVADIDYSGGSTYYADSVKGRFTISRDNAKNTVYLQMNSLKPEDTAVYYCAAERRRWGLDYYYWGQGTQVTVSS	high polyreactivity
